Values of other authors, collected in article PMC4628734.

Target: Cdc25C (Homo sapiens) (UniProt P30307)
UniProt P30307, sequence (P30307 whole entry, looked up): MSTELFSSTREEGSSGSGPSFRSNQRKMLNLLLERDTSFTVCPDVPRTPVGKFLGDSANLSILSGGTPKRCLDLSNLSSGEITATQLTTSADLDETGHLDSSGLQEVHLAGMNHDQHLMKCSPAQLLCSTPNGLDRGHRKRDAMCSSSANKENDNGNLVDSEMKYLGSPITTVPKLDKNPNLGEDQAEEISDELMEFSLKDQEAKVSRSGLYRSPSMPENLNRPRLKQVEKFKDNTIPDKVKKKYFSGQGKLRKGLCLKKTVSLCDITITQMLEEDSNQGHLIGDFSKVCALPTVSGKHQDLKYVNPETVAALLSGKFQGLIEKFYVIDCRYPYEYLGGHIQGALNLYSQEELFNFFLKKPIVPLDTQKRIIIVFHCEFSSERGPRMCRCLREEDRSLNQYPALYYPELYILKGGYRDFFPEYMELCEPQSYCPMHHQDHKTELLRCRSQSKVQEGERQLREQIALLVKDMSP

PLK-1 PBD (from UniProt P53350)
Kd: 1800 nM
